Data reported in paper PMC12861225.

B1: Tissue-nonspecific alkaline phosphatase (TNALP): N230Q/N271Q/N430D (protein)
parent chain: MISPFLVLAIGTCLTNSLVPEKEKDPKYWRDQAQETLKYALELQKLNTNVAKNVIMFLGDGMGVSTVTAARILKGQLHHNPGEETRLEMDKFPFVALSKTYNTNAQVPDSAGTATAYLCGVKANEGTVGVSAATERSRCNTTQGNEVTSILRWAKDAGKSVGIVTTTRVNHATPSAAYAHSADRDWYSDNEMPPEALSQGCKDIAYQLMHNIRDIDVIMGGGRKYMYPKNKTDVEYESDEKARGTRLDGLDLVDTWKSFKPRYKHSHFIWNRTELLTLDPHNVDYLLGLFEPGDMQYELNRNNVTDPSLSEMVVVAIQILRKNPKGFFLLVEGGRIDHGHHEGKAKQALHEAVEMDRAIGQAGSLTSSEDTLTVVTADHSHVFTFGGYTPRGNSIFGLAPMLSDTDKKPFTAILYGNGPGYKVVGGERENVSMVDYAHNNYQAQSAVPLRHETHGGEDVAVFSKGPMAHLLHGVHEQNYVPHVMAYAACIGANLGHCAPASSAGSLAAGPLLLALALYPLSVLF
B2: Tissue-nonspecific alkaline phosphatase (TNALP): N140Q/N230Q/N430D (protein)
parent chain: B1 parent chain
B3: Tissue-nonspecific alkaline phosphatase (TNALP): N230Q/N271Q/N303Q (protein)
parent chain: B1 parent chain
B4: Tissue-nonspecific alkaline phosphatase (TNALP): N230Q/N303Q (protein)
parent chain: B1 parent chain
B5: Tissue-nonspecific alkaline phosphatase (TNALP): N140Q/N271Q (protein)
parent chain: B1 parent chain
B6: Tissue-nonspecific alkaline phosphatase (TNALP): N140Q (protein)
parent chain: B1 parent chain
B7: Tissue-nonspecific alkaline phosphatase (TNALP): N230Q/N430D (protein)
parent chain: B1 parent chain
B8: Tissue-nonspecific alkaline phosphatase (TNALP): N303Q (protein)
parent chain: B1 parent chain
B9: Tissue-nonspecific alkaline phosphatase (TNALP): N230Q (protein)
parent chain: B1 parent chain
B10: Tissue-nonspecific alkaline phosphatase (TNALP): N271Q/N303Q (protein)
parent chain: B1 parent chain
B11: Tissue-nonspecific alkaline phosphatase (TNALP): N271Q (protein)
parent chain: B1 parent chain
B12: Tissue-nonspecific alkaline phosphatase (TNALP): N271Q/N430D (protein)
parent chain: B1 parent chain
B13: Tissue-nonspecific alkaline phosphatase (TNALP): N430D (protein)
parent chain: B1 parent chain
B14: Tissue-nonspecific alkaline phosphatase (TNALP): N140Q/N430D (protein)
parent chain: B1 parent chain
B15: Tissue-nonspecific alkaline phosphatase (TNALP): N303Q/N430D (protein)
parent chain: B1 parent chain
B16: Tissue-nonspecific alkaline phosphatase (TNALP): N140Q/N230Q (protein)
parent chain: B1 parent chain
B17: Tissue-nonspecific alkaline phosphatase (TNALP): N140Q/N303Q (protein)
parent chain: B1 parent chain
B18: Tissue-nonspecific alkaline phosphatase (TNALP): N230Q/N271Q (protein)
parent chain: B1 parent chain
B19: Tissue-nonspecific alkaline phosphatase (TNALP): heterodimeric N271Q/N430D (protein)
parent chain: B1 parent chain
B20: Tissue-nonspecific alkaline phosphatase (TNALP): heterodimeric N303Q/N430D (protein)
parent chain: B1 parent chain
B21: Tissue-nonspecific alkaline phosphatase (TNALP): heterodimeric N271Q/N303Q (protein)
parent chain: B1 parent chain
B22: Tissue-nonspecific alkaline phosphatase (TNALP): heterodimeric N140Q/N271Q (protein)
parent chain: B1 parent chain
B23: Tissue-nonspecific alkaline phosphatase (TNALP): heterodimeric N430D (protein)
parent chain: B1 parent chain
B24: Tissue-nonspecific alkaline phosphatase (TNALP): heterodimeric N230Q/N430D (protein)
parent chain: B1 parent chain
B25: Tissue-nonspecific alkaline phosphatase (TNALP): heterodimeric N140Q/N303Q (protein)
parent chain: B1 parent chain
B26: Tissue-nonspecific alkaline phosphatase (TNALP): heterodimeric N140Q/N230Q (protein)
parent chain: B1 parent chain
B27: Tissue-nonspecific alkaline phosphatase (TNALP): heterodimeric N140Q/N430D (protein)
parent chain: B1 parent chain
B28: Tissue-nonspecific alkaline phosphatase (TNALP): heterodimeric N271Q (protein)
parent chain: B1 parent chain
B29: Tissue-nonspecific alkaline phosphatase (TNALP): heterodimeric N230Q/N303Q (protein)
parent chain: B1 parent chain
B30: Tissue-nonspecific alkaline phosphatase (TNALP): heterodimeric N230Q (protein)
parent chain: B1 parent chain
B31: Tissue-nonspecific alkaline phosphatase (TNALP): heterodimeric N303Q (protein)
parent chain: B1 parent chain
B32: Tissue-nonspecific alkaline phosphatase (TNALP): heterodimeric N140Q (protein)
parent chain: B1 parent chain
B33: Tissue-nonspecific alkaline phosphatase (TNALP): heterodimeric N230Q/N271Q (protein)
parent chain: B1 parent chain

Experiment: pNPP activity of supernatant; triple-site mutants
Details: glycan lost; control: wild type

| Protein | enzymatic_activity |
| --- | --- |
| B1 | abolishes |
| B2 | abolishes |
| B3 | abolishes |

Experiment: SYPRO Orange thermal shift, pooled purified protein
Details: glycan lost; control: wild type

| Protein | stability_or_folding, Tm |
| --- | --- |
| B4 | no change, 54.1 vs 54.5 |
| B5 | decreases, 53.7 vs 54.5 |
| B6 | no change, 54.9 vs 54.5 |
| B7 | increases, 55.7 vs 54.5 |
| B8 | decreases, 53.7 vs 54.5 |
| B9 | no change, 54.5 vs 54.5 |
| B10 | decreases, 52.9 vs 54.5 |
| B11 | no change, 54.5 vs 54.5 |
| B12 | increases, 55.3, 69.7 vs 54.5 |
| B13 | increases, 55.7 vs 54.5 |
| B14 | increases, 56.5 vs 54.5 |
| B15 | increases, 55.3, 70.1 vs 54.5 |
| B16 | no change, 54.9 vs 54.5 |

Experiment: weak anion-exchange HPLC with activity-based detection
Details: glycan lost; control: wild type

| Protein | other: HPLC isoform profile |
| --- | --- |
| B4 | no change |
| B6 | no change |
| B7 | changes |
| B8 | no change |
| B9 | no change |
| B10 | changes |
| B11 | no change |
| B12 | changes |
| B17 | no change |
| B13 | no change |
| B14 | changes |
| B15 | changes |

Experiment: anti-Flag immunoblot, lysate vs medium, 1 μM MG-132 16 h
Details: glycan lost; control: wild type

| Protein | localisation_or_trafficking, fold_change |
| --- | --- |
| B18 | changes |
| B5 | changes |

Experiment: remaining pNPP activity after 15 min at 56 °C; homodimeric
Details: glycan lost; control: wild type

| Protein | stability_or_folding, other: remaining activity |
| --- | --- |
| B10 | decreases, 12 ± 1 vs 23 ± 4 |
| B12 | increases, 63 ± 5 vs 23 ± 4 |
| B15 | increases, 47 ± 13 vs 23 ± 4 |

Experiment: remaining pNPP activity after 56 °C; mutant:WT plasmid 1:1
Details: glycan lost; control: wild type

| Protein | stability_or_folding |
| --- | --- |
| B19 | no change |
| B20 | no change |
| B21 | no change |

Experiment: pNPP activity; mutant:WT plasmid 1:1 (heterodimers not confirmed)
Details: glycan lost; control: wild type plasmid only

| Protein | enzymatic_activity, percent_of_wt |
| --- | --- |
| B22 | decreases |
| B19 | decreases |
| B23 | decreases |
| B20 | decreases |
| B24 | no change |
| B25 | decreases |
| B26 | decreases |
| B27 | decreases |
| B28 | decreases |
| B29 | decreases |
| B30 | decreases |
| B31 | decreases |
| B32 | decreases |
| B21 | decreases |
| B33 | decreases |

Experiment: anti-Flag capillary immunoblot of Flag-purified medium, pooled n=6
Details: glycan lost; control: wild type

| Protein | expression_or_secretion, fold_change |
| --- | --- |
| B4 | decreases, 0.4 vs 1.0 |
| B18 | abolishes, 0.0 vs 1.0 |
| B5 | decreases, 0.2 vs 1.0 |
| B6 | decreases, 0.4 vs 1.0 |
| B7 | decreases, 0.6 vs 1.0 |
| B8 | decreases, 0.5 vs 1.0 |
| B9 | decreases, 0.5 vs 1.0 |
| B10 | decreases, 0.4 vs 1.0 |
| B11 | decreases, 0.4 vs 1.0 |
| B12 | decreases, 0.7 vs 1.0 |
| B17 | decreases, 0.4 vs 1.0 |
| B13 | decreases, 0.5 vs 1.0 |
| B14 | decreases, 0.6 vs 1.0 |
| B15 | decreases, 0.7 vs 1.0 |
| B16 | decreases, 0.5 vs 1.0 |

Experiment: pNPP activity of supernatant, normalised to total protein; homodimeric double mutants
Details: glycan lost; control: wild type

| Protein | enzymatic_activity, other: specific activity |
| --- | --- |
| B4 | no change, 9.5 ± 6.5 vs 13.6 ± 6.6 |
| B7 | no change, 9 ± 6 vs 13.6 ± 6.6 |
| B10 | decreases, 3.9 ± 2.8 vs 13.6 ± 6.6 |
| B12 | decreases, 4.3 ± 3.4 vs 13.6 ± 6.6 |
| B17 | decreases, 3.5 ± 2.7 vs 13.6 ± 6.6 |
| B14 | decreases, 7 ± 4.3 vs 13.6 ± 6.6 |
| B15 | decreases, 4.7 ± 4 vs 13.6 ± 6.6 |
| B16 | decreases, 3.8 ± 3.9 vs 13.6 ± 6.6 |

Experiment: pNPP activity of supernatant, normalised to total protein; homodimeric single mutants
Details: glycan lost; control: wild type

| Protein | enzymatic_activity, other: specific activity |
| --- | --- |
| B6 | no change |
| B8 | no change |
| B9 | no change |
| B13 | no change |
